Experimental data taken from article PMC6321638.

Molecular target: L52A or F85A
Assay: pull-down; GST-pulldown: purified His-SOUL (5 µM) and GST-ALG-2 (5 µM) with Glutathione Sepharose 4B in buffer B (100 mM Tris-HCl pH 7.5, 100 mM NaCl, 10% glycerol) with 20 µM CaCl2 (or various amounts of Ca2+), 30 min at 4 °C; SDS-PAGE, Coomassie

B1: His-SOUL^WT (wild-type SOUL fused to His-tag) (natural protein)
chain: MAEEPEPDLGVAEGSEDQALEMPSWKAPEDIDPQPGSYEIRHYGPAKWVSTCVESLDWDSAIQTGFTKLNGYIQGKNEKEMKIKLTAPVTSYVEPGSSPFSESTITISLYIPSEQQPDPPRPSESDVFIEDRAEMTVFVRSFDGFSSGQKNQEQLLTLANILREEGKVFNEKVFYTAGYSSPFQLLDRNNEVWLIQKNEPSVENK
Question: B1 was tested. Which binding relative to ALG-2^WT (percent) did it give?
Answer: The binding relative to ALG-2^WT (percent) was 80 to 90%.
